PMC7055372

Target: Transforming growth factor β-1 (TGFβ-1) (UniProt P01137)
Assay: ELISA of cell-culture supernatant with anti-TGFβ-1 antibody after acid activation (latent complex formation/secretion)
Conditions: HEK293T cells transfected, supernatant after 48 h; acid-activated (short incubation with HCl); parent: est. 1.0; read off a plot

| Substance | response (Normalized OD450) |
| --- | --- |
| LAP of wild-type LTGFβ-1 C4S (full-length LTGFβ-1 expressed in HEK-293T cells) (from UniProt P01137) E113P | 0.6 |
| LAP of wild-type LTGFβ-1 C4S (full-length LTGFβ-1 expressed in HEK-293T cells) (from UniProt P01137) L111P | 0.18 |
| LAP of wild-type LTGFβ-1 C4S (full-length LTGFβ-1 expressed in HEK-293T cells) (from UniProt P01137) S109P | 0.53 |
